One block for each binder: values may come before it.
Biological target: B-cell maturation antigen (BCMA) expressed on cells (human), Q02223
Experiment: cell-based or functional assay

Sequence of B-cell maturation antigen (BCMA) expressed on cells (human), Q02223 (Q02223 whole entry): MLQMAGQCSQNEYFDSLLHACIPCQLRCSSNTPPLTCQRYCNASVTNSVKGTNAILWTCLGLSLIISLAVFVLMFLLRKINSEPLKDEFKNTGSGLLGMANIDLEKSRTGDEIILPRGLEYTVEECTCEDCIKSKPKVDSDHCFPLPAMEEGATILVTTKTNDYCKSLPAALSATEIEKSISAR

- JNL binding assay, ratio to K562; K562-BCMA: 4.47
- JNL binding assay, ratio to K562; NCI-H929: 3.31
- JNL binding assay, ratio to K562; RPMI 8226: 6.25
- Proliferation, CD3 ratio to no target; K562-BCMA: 7.37
- Proliferation, CD3 ratio to no target; KMS11-luc: 8.63
- Proliferation, CD3 ratio to no target; NCI-H929: 8.64
- Proliferation, CD3 ratio to no target; RPMI 8226: 8.14
- Proliferation, CD4 ratio to no target; K562-BCMA: 9.21
- Proliferation, CD4 ratio to no target; KMS11-luc: 8.6
- Proliferation, CD4 ratio to no target; NCI-H929: 9.86
- Proliferation, CD4 ratio to no target; RPMI 8226: 10.1
- Proliferation, CD8 ratio to no target; K562-BCMA: 5.66
- Proliferation, CD8 ratio to no target; KMS11-luc: 8.74
- Proliferation, CD8 ratio to no target; NCI-H929: 7.42
- Proliferation, CD8 ratio to no target; RPMI 8226: 6.19
B1: BCMA-4 CAR (139103) (protein)
chain: QVQLVESGGGLVQPGRSLRLSCAASGFTFSNYAMSWVRQAPGKGLGWVSGISRSGENTYYADSVKGRFTISRDNSKNTLYLQMNSLRDEDTAVYYCARSPAHYYGGMDVWGQGTTVTVSSASGGGGSGGRASGGGGSDIVLTQSPGTLSLSPGERATLSCRASQSISSSFLAWYQQKPGQAPRLLIYGASRRATGIPDRFSGSGSGTDFTLTISRLEPEDSAVYYCQQYHSSPSWTFGQGTKLEIKTTTPAPRPPTPAPTIASQPLSLRPEACRPAAGGAVHTRGLDFACDIYIWAPLAGTCGVLLLSLVITLYCKRGRKKLLYIFKQPFMRPVQTTQEEDGCSCRFPEEEEGGCELRVKFSRSADAPAYKQGQNQLYNELNLGRREEYDVLDKRRGRDPEMGGKPRRKNPQEGLYNELQKDKMAEAYSEIGMKGERRRGKGHDGLYQGLSTATKDTYDALHMQALPPR
- Cell killing EC50; KMS11-luc: 0.13 not printed

- JNL binding assay, ratio to K562; K562-BCMA: 2.55
- JNL binding assay, ratio to K562; NCI-H929: 2.36
- JNL binding assay, ratio to K562; RPMI 8226: 2.77
- Proliferation, CD3 ratio to no target; K562-BCMA: 1.72
- Proliferation, CD3 ratio to no target; KMS11-luc: 1.71
- Proliferation, CD3 ratio to no target; NCI-H929: 1.8
- Proliferation, CD3 ratio to no target; RPMI 8226: 1.62
- Proliferation, CD4 ratio to no target; K562-BCMA: 2.17
- Proliferation, CD4 ratio to no target; KMS11-luc: 1.96
- Proliferation, CD4 ratio to no target; NCI-H929: 2.23
- Proliferation, CD4 ratio to no target; RPMI 8226: 1.91
- Proliferation, CD8 ratio to no target; K562-BCMA: 1.08
- Proliferation, CD8 ratio to no target; KMS11-luc: 1.35
- Proliferation, CD8 ratio to no target; NCI-H929: 1.18
- Proliferation, CD8 ratio to no target; RPMI 8226: 1.19
B2: BCMA-7 CAR (139106) (protein)
chain: EVQLVETGGGLVQPGGSLRLSCAVSGFALSNHGMSWVRRAPGKGLEWVSGIVYSGSTYYAASVKGRFTISRDNSRNTLYLQMNSLRPEDTAIYYCSAHGGESDVWGQGTTVTVSSASGGGGSGGRASGGGGSEIVMTQSPATLSVSPGERATLSCRASQSVSSKLAWYQQKPGQAPRLLMYGASIRATGIPDRFSGSGSGTEFTLTISSLEPEDFAVYYCQQYGSSSWTFGQGTKVEIKTTTPAPRPPTPAPTIASQPLSLRPEACRPAAGGAVHTRGLDFACDIYIWAPLAGTCGVLLLSLVITLYCKRGRKKLLYIFKQPFMRPVQTTQEEDGCSCRFPEEEEGGCELRVKFSRSADAPAYKQGQNQLYNELNLGRREEYDVLDKRRGRDPEMGGKPRRKNPQEGLYNELQKDKMAEAYSEIGMKGERRRGKGHDGLYQGLSTATKDTYDALHMQALPPR
- Cell killing EC50; KMS11-luc: 0.15 not printed

- JNL binding assay, ratio to K562; K562-BCMA: 2.34
- JNL binding assay, ratio to K562; NCI-H929: 2.34
- JNL binding assay, ratio to K562; RPMI 8226: 2.4
- Proliferation, CD3 ratio to no target; K562-BCMA: 1.62
- Proliferation, CD3 ratio to no target; KMS11-luc: 1.61
- Proliferation, CD3 ratio to no target; NCI-H929: 1.72
- Proliferation, CD3 ratio to no target; RPMI 8226: 1.73
- Proliferation, CD4 ratio to no target; K562-BCMA: 2.19
- Proliferation, CD4 ratio to no target; KMS11-luc: 1.9
- Proliferation, CD4 ratio to no target; NCI-H929: 2.23
- Proliferation, CD4 ratio to no target; RPMI 8226: 2.15
- Proliferation, CD8 ratio to no target; K562-BCMA: 0.99
- Proliferation, CD8 ratio to no target; KMS11-luc: 1.27
- Proliferation, CD8 ratio to no target; NCI-H929: 1.11
- Proliferation, CD8 ratio to no target; RPMI 8226: 1.25
B3: BCMA-5 CAR (139104) (protein)
chain: EVQLLETGGGLVQPGGSLRLSCAVSGFALSNHGMSWVRRAPGKGLEWVSGIVYSGSTYYAASVKGRFTISRDNSRNTLYLQMNSLRPEDTAIYYCSAHGGESDVWGQGTTVTVSSASGGGGSGGRASGGGGSEIVLTQSPATLSVSPGESATLSCRASQSVSSNLAWYQQKPGQAPRLLIYGASTRASGIPDRFSGSGSGTDFTLTISSLQAEDVAVYYCQQYGSSLTFGGGTKVEIKTTTPAPRPPTPAPTIASQPLSLRPEACRPAAGGAVHTRGLDFACDIYIWAPLAGTCGVLLLSLVITLYCKRGRKKLLYIFKQPFMRPVQTTQEEDGCSCRFPEEEEGGCELRVKFSRSADAPAYKQGQNQLYNELNLGRREEYDVLDKRRGRDPEMGGKPRRKNPQEGLYNELQKDKMAEAYSEIGMKGERRRGKGHDGLYQGLSTATKDTYDALHMQALPPR
- Cell killing EC50; KMS11-luc: 0.21 not printed

- JNL binding assay, ratio to K562; K562-BCMA: 4.6
- JNL binding assay, ratio to K562; NCI-H929: 4.55
- JNL binding assay, ratio to K562; RPMI 8226: 5.06
- Proliferation, CD3 ratio to no target; K562-BCMA: 1.59
- Proliferation, CD3 ratio to no target; KMS11-luc: 1.38
- Proliferation, CD3 ratio to no target; NCI-H929: 4.97
- Proliferation, CD3 ratio to no target; RPMI 8226: 2.96
- Proliferation, CD4 ratio to no target; K562-BCMA: 1.57
- Proliferation, CD4 ratio to no target; KMS11-luc: 1.24
- Proliferation, CD4 ratio to no target; NCI-H929: 5.57
- Proliferation, CD4 ratio to no target; RPMI 8226: 2.43
- Proliferation, CD8 ratio to no target; K562-BCMA: 1.61
- Proliferation, CD8 ratio to no target; KMS11-luc: 1.56
- Proliferation, CD8 ratio to no target; NCI-H929: 4.14
- Proliferation, CD8 ratio to no target; RPMI 8226: 3.58
B4: BCMA-1 CAR (139100) (protein)
chain: QVQLVQSGAEVRKTGASVKVSCKASGYIFDNFGINWVRQAPGQGLEWMGWINPKNNNTNYAQKFQGRVTITADESTNTAYMEVSSLRSEDTAVYYCARGPYYYQSYMDVWGQGTMVTVSSASGGGGSGGRASGGGGSDIVMTQTPLSLPVTPGEPASISCRSSQSLLHSNGYNYLNWYLQKPGQSPQLLIYLGSKRASGVPDRFSGSGSGTDFTLHITRVGAEDVGVYYCMQALQTPYTFGQGTKLEIKTTTPAPRPPTPAPTIASQPLSLRPEACRPAAGGAVHTRGLDFACDIYIWAPLAGTCGVLLLSLVITLYCKRGRKKLLYIFKQPFMRPVQTTQEEDGCSCRFPEEEEGGCELRVKFSRSADAPAYKQGQNQLYNELNLGRREEYDVLDKRRGRDPEMGGKPRRKNPQEGLYNELQKDKMAEAYSEIGMKGERRRGKGHDGLYQGLSTATKDTYDALHMQALPPR
- Cell killing EC50; KMS11-luc: 0.68 not printed
